Laboratory results: paper PMC6378327, “Modes of Accessing Bicarbonate for the Regulation of Membrane Guanylate Cyclase (ROS-GC) in Retinal Rods and Cones” (eNeuro, 2019)

Target: the molecule itself
Assay: SEC + other: gel electrophoresis without reducing agents; purified fragment in solution; molecular weight markers during FPLC elution (Superdex 200) and gel electrophoresis performed without reducing agents

B1: core catalytic domain fragment of bovine ROS-GC1 (G817-Y965) (domain or fragment)
chain: not shown
notes: bovine ROS-GC1 (retinal membrane guanylate cyclase 1), core catalytic domain, G817-Y965; numbers count on: the mature protein (according to Goraczniak et al., 1994); Cloned into the BglII/NcoI site of pET30Xa/LIC (Novagen); Residue numbers are on the mature protein, so they are shifted by the length of the signal peptide relative to the precursor entry; also called ROS-GC1 fragment; soluble …
- stoichiometry N: 2
